Numbering of substitutions follows the chain as printed. In names and notes the source's numbering stands.
B1: Modified IL-18 polypeptide of SEQ ID NO: 2 (E06K, K53A, S55A) (ligand)
chain: YFGKLKSKLSVIRNLNDQVLFIDQGNRPLFEDMTDSDCRDNAPRTIFIISMYADAQPRGMAVTISVKCEKISTLSCENKIISFKEMNPPDNIKDTKSDIIFFQRSVPGHDNKMQFESSSYEGYFLACEKERDLFKLILKKEDELGDRSIMFTVQNED
B2: Modified IL-18 polypeptide of SEQ ID NO: 17 (E06K, K53A, S55A, C38S, C68S, C76S, C127S, K70C) (ligand)
chain: B1 chain with C38S, C68S, K70C, C76S, C127S
B3: Modified IL-18 polypeptide of SEQ ID NO: 22 (E06K, K53A, C38S, C68S, C76S, C127S, K70C) (ligand)
chain: B1 chain with C38S, A55S, C68S, K70C, C76S, C127S
B4: Modified IL-18 polypeptide of SEQ ID NO: 15 (C38S, C68S, C76S, C127S) (ligand)
chain: B1 chain with K6E, C38S, A53K, A55S, C68S, C76S, C127S
B5: Modified IL-18 polypeptide of SEQ ID NO: 14 (E06K, K53A, S55A, M51G) (ligand)
chain: B1 chain with M51G
B6: Modified IL-18 polypeptide of SEQ ID NO: 3 (Y01G, F02A, E06K, M51G, K53A, D54A, S55A, T63A) (ligand)
chain: B1 chain with Y1G, F2A, M51G, D54A, T63A
B7: Modified IL-18 polypeptide of SEQ ID NO: 71 with a 30 kDa PEG attached at residue C68 (E6K, C38S, K53A, C68-30kDPEG) (ligand)
chain: B1 chain with C38S, A55S
modifications: 30 kDa PEG on Cys 68 (30 kDa DBCO-polyethylene glycol clicked to a bromoacetamido-PEG5-azide linker on the cysteine)
notes: also called 71 + PEG
B8: Modified IL-18 polypeptide of SEQ ID NO: 23 (K53A, T63A, C38S, C68S, C76S, C127S, K70C) (ligand)
chain: B1 chain with K6E, C38S, A55S, T63A, C68S, K70C, C76S, C127S
B9: Modified IL-18 polypeptide of SEQ ID NO: 70 (E6K, K53A, C38S, C76S, C127S) (ligand)
chain: B1 chain with C38S, A55S, C76S, C127S
B10: Modified IL-18 polypeptide of SEQ ID NO: 13 (E06K, K53A, S55A, D54A) (ligand)
chain: B1 chain with D54A
B11: Modified IL-18 polypeptide of SEQ ID NO: 10 (E06K, K53A, S55A, T63A) (ligand)
chain: B1 chain with T63A
B12: Modified IL-18 polypeptide of SEQ ID NO: 16 (C38S, C68S, C76S, C127S, K70C) (ligand)
chain: B1 chain with K6E, C38S, A53K, A55S, C68S, K70C, C76S, C127S
B13: Modified IL-18 polypeptide of SEQ ID NO: 71 (E6K, C38S, K53A) (ligand)
chain: B1 chain with C38S, A55S
B14: Modified IL-18 polypeptide of SEQ ID NO: 12 (E06K, K53A, S55A, F02A) (ligand)
chain: B1 chain with F2A
B15: Modified IL-18 polypeptide of SEQ ID NO: 18 (E06K, K53A, T63A) (ligand)
chain: B1 chain with A55S, T63A

Columns and labels:
[1] = molecular target: IL-18R on HEK-Blue IL18R reporter cells (InvivoGen, #hkb-hmil18); assay: cell-based or functional assay
[2] = molecular target: T1, Fc fused human IL-18Rα (human, UniProt Q13478 19-329, limits assumed); assay: SPR, Fc-IL-18Rα captured, 1:1 model
T1 construct: also called IL-18Rα monomer; IL-18 receptor alpha; not shown: Fc part
T1 sequence (looked up): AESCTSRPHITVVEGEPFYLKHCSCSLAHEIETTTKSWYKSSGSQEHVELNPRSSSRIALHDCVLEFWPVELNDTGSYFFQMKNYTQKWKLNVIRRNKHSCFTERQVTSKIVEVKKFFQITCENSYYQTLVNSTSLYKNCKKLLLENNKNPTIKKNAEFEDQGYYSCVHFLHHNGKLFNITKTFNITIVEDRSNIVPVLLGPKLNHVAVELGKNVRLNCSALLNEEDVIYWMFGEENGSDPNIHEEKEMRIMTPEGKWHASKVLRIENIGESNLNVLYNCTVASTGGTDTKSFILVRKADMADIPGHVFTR
Experimental: (§1) The interaction of the wild type and of modified IL-18 polypeptides with human IL-18 receptor subunits were measured with Surface Plasmon Resonance (SPR) technology. Anti-human IgG antibodies were bound by amine coupling onto a CM5 chip to capture 6 μg/mL of Fc fused human IL-18Rα, 6 μg/mL of Fc fused human IL-18Rβ, or 2 μg/mL of Fc fused human IL-18BP isoform a (IL-18BPa) for 30 min before capture. In other settings, 6 μg/mL of alpha and beta IL-18 receptors were mixed and pre-incubated for 30 min before capture of the alpha/beta heterodimer IL-18 receptor.
(§2) The kinetic binding of the IL-18 analytes were measured with a Biacore 8K instrument in two-fold serial dilutions starting at 1 μM down to 0.98 nM. Regeneration of the surface back to amine coupled anti IgG antibody was done after every concentration of analyte. To measure the protein association to the receptors, the samples were injected with a flow rate of 50 μL/min for 60 s, followed by 300 s buffer only to detect the dissociation. The used running buffer was 1×PBS with 0.05% Tween20. The relative response units (RU, Y-axis) are plotted against time (s, X-axis) and analyzed in a kinetic 1:1 binding model for the monomer receptor binding and for the binding to the IL-18BP. A kinetic heterogenous ligand fit model was applied for the alpha/beta heterodimer binding.
Modified IL-18 polypeptides having sequence modifications E06K, K53A, S55A, and T63A maintained binding affinity to IL-18Rα.

[3] = molecular target: T2, IL-18Rα/β heterodimer (Fc fused human IL-18Rα mixed and pre-incubated with Fc fused human IL-18Rβ) (human, UniProt Q13478 19-329; O95256 20-356, limits assumed); assay: SPR, Fc-IL-18Rα/Fc-IL-18Rβ mix captured, heterogeneous ligand model
T2 construct: 6 µg/mL of each receptor mixed and pre-incubated 30 min before capture on anti-human IgG; also called alpha/beta heterodimer IL-18 receptor; not shown: Fc part
T2 sequence (looked up) 1: T1 sequence (looked up)
T2 sequence (looked up) 2: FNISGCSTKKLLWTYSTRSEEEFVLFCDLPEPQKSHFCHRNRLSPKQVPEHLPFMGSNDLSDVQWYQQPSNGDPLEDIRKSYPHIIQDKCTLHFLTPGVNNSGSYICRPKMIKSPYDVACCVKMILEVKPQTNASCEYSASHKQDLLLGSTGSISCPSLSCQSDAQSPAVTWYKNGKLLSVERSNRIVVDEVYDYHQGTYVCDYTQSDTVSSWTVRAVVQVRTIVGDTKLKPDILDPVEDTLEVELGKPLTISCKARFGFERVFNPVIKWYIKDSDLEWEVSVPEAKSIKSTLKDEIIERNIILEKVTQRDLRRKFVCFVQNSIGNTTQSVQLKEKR
Experimental: as §1, §2
Modified IL-18 polypeptides bearing sequence modifications E06K, K53A, S55A, and T63A maintained binding affinity to IL-18Rα/β heterodimer.

[4] = molecular target: anti-IL18 monoclonal antibody (MBL, cat #D043-3, Clone 25-2G); assay: sandwich ELISA, capture clone 25-2G, detection biotinylated clone 159-12B; without IL-18BP; the signal depends on both antibodies
Experimental: (§3) Immune-related PD effects were determined by analyzing cytokine levels in plasma. The following plasma cytokines were measured: IFNγ, CXCL9, CXCL10, GM-CSF, IL-1a, FasL, and IL-18BP. The activation status of leukocytes was determined by monitoring surface markers: ICOS, PD-1, CD25, CD69, and Fas. Bioanalysis was conducted by detecting the total amount of IL-18 variants (free and IL-18BP-complexed, see FIG. 7). Corning high-binding half-area plates (Fisher Scientific, Reinach, Switzerland) were coated overnight at 4° C. with 25 μl of anti-IL18 monoclonal antibody (MBL, cat #D043-3, Clone 25-2G) at 2 μg/ml in PBS. Plates were then washed four times with 100 μl of PBS-0.02% Tween20. Plates surfaces were blocked with 25 μl of PBS-0.02% Tween20-1% BSA at 37° C. during 1 h. Plates were then washed four times with 100 μl of PBS-0.02% Tween20. Twenty-five microliters of IL-18 variants (or of mouse plasma) were added in […] serial dilutions starting at 50 nM down to 0.02 nM into PBS-0.02% Tween20-0.1% BSA and incubated at 37° C. during 2h. […] Plates were incubated during 2h at 37° C. and were then washed four times with 100 μl of PBS-0.02% Tween20. […] ELISA signal was then measured at 450 nm on an EnSpire plate reader from Perkin Elmer (Schwerzenbach, Switzerland)

[5] = molecular target: anti-IL18 monoclonal antibody (MBL, cat #D043-3, Clone 25-2G); assay: sandwich ELISA, capture clone 25-2G, detection biotinylated clone 159-12B; in the presence of IL-18BP (form and concentration not given); the signal depends on both antibodies
Experimental: as §3

[6] = molecular target: T3, Fc fused human IL-18BP isoform a (IL-18BPa) (human, UniProt O95998 31-194); assay: SPR, Fc-IL-18BPa captured, 1:1 model
T3 construct: also called IL-18BP monomer; not shown: Fc part
T3 sequence (looked up): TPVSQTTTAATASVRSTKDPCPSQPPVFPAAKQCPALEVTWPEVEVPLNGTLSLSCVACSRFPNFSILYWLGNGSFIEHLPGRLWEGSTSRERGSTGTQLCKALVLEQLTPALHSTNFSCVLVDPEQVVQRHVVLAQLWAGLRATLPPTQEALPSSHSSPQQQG
Experimental: as §1, §2
Modified IL-18 polypeptides bearing sequence modifications K53A, S55A, E06K, C38S, C68S, C76S, C127S, and/or K70C maintained binding affinity to IL-18BP.

Row | Binder | EC50 (pM), HEK-Blue IL18R reporter assay [1] [pM] | Potency loss Mutant/NWT, HEK-Blue IL18R reporter assay [1] [fold] | Kd [2] [nM] | koff [2] [s⁻¹] | kon [2] [M⁻¹ s⁻¹] | Kd [3] [nM] | koff [3] [s⁻¹] | kon [3] [M⁻¹ s⁻¹] | EC50 (read off the curve) [4] [nM] | EC50 (read off the curve) [5] [nM] | Kd [6] [nM] | koff [6] [s⁻¹] | kon [6] [M⁻¹ s⁻¹]
1 | B1 | 272 | 81.8 | 2000 | 0.0627 | 31800 | 1930 | 0.0734 | 39200 | ~0.2 | ~0.2 | – | – | –
2 | B2 | – | – | > 1000 | – | – | > 1000 | – | – | – | – | – | – | –
3 | B3 | 9.12 | 2.74 | 2210 | 0.0199 | 8970 | 48.2 | 0.000761 | 15800 | – | – | 23.2 | 0.00235 | 101000
4 | B4 | – | – | 231 | 0.0179 | 77500 | 315 | 0.022 | 69800 | – | – | 0.199 | 0.000253 | 1.27e+06
5 | B5 | – | – | > 1000 | – | – | – | – | – | – | – | > 1000 | – | –
6 | B6 | – | – | > 1000 | – | – | > 1000 | – | – | – | – | – | – | –
7 | B7 | 1.85 | 0.56 | 682 | 0.0217 | 31800 | 23.9 | 0.0008 | 32200 | – | – | 24.5 | 0.0039 | 158000
8 | B8 | – | – | > 1000 | – | – | > 1000 | – | – | – | – | 52.8 | 0.00118 | 22400
9 | B9 | 3.73 | 1.11 | 379 | 0.0369 | 92600 | 13.2 | 0.0006 | 43600 | – | – | 29.1 | 0.0037 | 128000
10 | B10 | – | – | > 1000 | – | – | > 1000 | – | – | – | – | > 1000 | – | –
11 | B11 | 0.79 | 0.24 | 147 | 0.0496 | 337000 | 132 | 0.054 | 409000 | – | – | 49 | 0.0181 | 370000
12 | B12 | – | – | 304 | 0.0158 | 51900 | 200 | 0.0317 | 159000 | – | – | 0.374 | 0.000265 | 708000
13 | B13 | 0.86 | 0.26 | 72.4 | 0.0151 | 208000 | 2.92 | 0.0008 | 279000 | – | – | 2.72 | 0.0031 | 1.14e+06
14 | B14 | – | – | > 1000 | – | – | > 1000 | – | – | – | – | > 1000 | – | –
15 | B15 | 1.77 | 0.53 | 38 | 0.00573 | 151000 | 7.01 | 0.000955 | 136000 | – | – | 10.4 | 0.00291 | 279000
